Data as given in patent publication US7868138B2, “Methods for generating polynucleotides having desired characteristics by iterative selection and recombination” (priority 1994, dated 2011).

B1: TEM-1: wild-type bacterial TEM-1 betalactamase, gene on a pUC18 derivative (protein, UniProt P62593 24-286, looked up)
Beta-lactamase TEM: HPETLVKVKDAEDQLGARVGYIELDLNSGKILESFRPEERFPMMSTFKVLLCGAVLSRVDAGQEQLGRRIHYSQNDLVEYSPVTEKHLTDGMTVRELCSAAITMSDNTAANLLLTTIGGPKELTAFLHNMGDHVTRLDRWEPELNEAIPNDERDTTMPAAMATTLRKLLTGELLTLASRQQLIDWMEADKVAGPLLRSALPAGWFIADKSGAGERGSRGIIAALGPDGKPSRIVVIYTTGSQATMDERNRQIAEIGASLIKHW

What was measured:
CHO cells = assay: Fluorescence spectroscopy of CHO cells expressing GFP; type: cell-based, chinese hamster; conditions: 2 mM sodium butyrate, 'wt' construct
Description: The wildtype and the cycle 2 and 3 mutant versions of the GFP gene were transferred into the eukaryotic expression vector Alpha+ (16) as an EcoRI-XbaI fragment. The plasmids were transfected into CHO cells by electroporation of 10^7 cells in 0.8 ml with 40 μg of plasmed at 400V and 250 μF. Transformants were selected using 1 mg/ml G418 for 10-12 days.
Improvements in autonomous characteristics such as self-folding can be tranferable to different cellular environments. After being selected in bacteria, the ‘cycle 3’ mutant GFP was transferred into the eukaryotic Alpha+ vector and expressed in chinese hamster ovary cells (CHO). […] FACS sorting confirmed that the average fluorescence signal of CHO cell clones expressing ‘cycle 3’ was 46-fold greater than cells expressing the ‘wt’ construct (FIG. 18B).

E. coli XL1-blue cells = assay: Minimum inhibitory concentration (MIC) of cefotaxime by plating on cefotaxime plates; type: cell-based
Description: The minimum inhibitory concentration (MIC) of cefotaxime on bacterial cells lacking a plasmid was determined by plating 10 μl of a 10^−2 dilution of an overnight bacterial culture (about 1000 cfu) of E. coli XL1-blue cells (Stratagene, San Diego Calif.) on plates with varying levels of cefotaxime (Sigma, St. Louis Mo.), followed by incubation for 24 hours at 37° C.
Growth on cefotaxime is sensitive to the density of cells, and therefore similar numbers of cells needed to be plated on each plate (obtained by plating on plain LB plates). Platings of 1000 cells were consistently performed.
Growth on cefotaxime is dependent on the cell density, requiring that all the MICs be standardized (in our case to about 1,000 cells per plate). […] The 5 largest colonies grown at […] were plated for single colonies twice, and the Sfi1 inserts were analyzed by restriction mapping of the colony PCR products.
After selection, the plasmid of selected clones was transferred back into wild-type E. coli XL1-blue cells (Stratagene, San Diego Calif.) to ensure that none of the measured drug resistance was due to chromosomal mutations.

Molecule	increase of the fluorescence signal (CHO cells)	minimum inhibitory concentration of cefotaxime (E. coli XL1-blue cells; 24 hours at 37° C., about 1,000 cells per plate)	MIC (E. coli XL1-blue cells; cefotaxime, mutants in identical plasmid background pUC182Sfi, no literature source in table) [µg/mL]
CCCC(=O)[O-].[Na+] [sodium butyrate]	4-8 fold		
B1		approximately 0.02 μg/ml	0.02
